In article PMC9204165, “Delineating the Role of the msaABCR Operon in Staphylococcal Overflow Metabolism”:

T1: MsaB-His (MsaBhis) (Staphylococcus aureus USA300 LAC) (UniProt Q2FH36)
T1 sequence: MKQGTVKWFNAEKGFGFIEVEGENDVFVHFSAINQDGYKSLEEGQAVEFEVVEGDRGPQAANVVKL

T2: MsaB-His (MsaBhis) (Staphylococcus aureus USA300 LAC, UniProt Q2FH36 1-66)
T2 sequence: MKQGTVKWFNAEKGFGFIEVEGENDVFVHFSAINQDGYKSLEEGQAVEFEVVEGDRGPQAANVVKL

B1: PcidABC-EMSA (dsDNA)
DNA 1: AGTGAAATTTAGAGAGCGTTTCCATAGAAAATAGTAATACAAACCATAAAAAAAGAGTAT
DNA 2: ATACTCTTTTTTTATGGTTTGTATTACTATTTTCTATGGAAACGCTCTCTAAATTTCACT
B2: PalsSD-EMSA (dsDNA)
DNA 1: ATACTCTTTTTTTATGGTTTGTATTACTATTTTCTATGGAAACGCTCTCTAAATTTCACT
DNA 2: AGTGAAATTTAGAGAGCGTTTCCATAGAAAATAGTAATACAAACCATAAAAAAAGAGTAT

Legend:
[1] = target: T1, MsaB-His (MsaBhis) (Staphylococcus aureus USA300 LAC); assay: competition
[2] = target: T1, MsaB-His (MsaBhis) (Staphylococcus aureus USA300 LAC); assay: EMSA
MsaB-His (MsaBhis) = target: T2, MsaB-His (MsaBhis); assay: EMSA; 5 mM MgCl2, poly(dI-dC); details: protein: recombinant; tags: C-terminal 6xHis; label: 5'-biotin

Row | Molecule | binding result (MsaB-His (MsaBhis)) | further results
1 | TCCACTAACATCATCCTAACTATTTCAACACGTTTATTTCATTATACACAACTTCTTAAACATTCAATAAATTTAGATTTATAAAATTGCTTTATAAAAAGTTTTATGTAAAATACACATTCTTTTATGGTATTATATTAATGGCTCAAGT (double strand) [PcidR promoter unlabeled competitor] |  | binding [1]: binds
2 | TCCACTAACATCATCCTAACTATTTCAACACGTTTATTTCATTATACACAACTTCTTAAACATTCAATAAATTTAGATTTATAAAATTGCTTTATAAAAAGTTTTATGTAAAATACACATTCTTTTATGGTATTATATTAATGGCTCAAGT (double strand) [PcidR promoter probe] |  | binding [2]: binds
3 | B1 | no binding | 
4 | B2 | no binding | 
